Results taken from publication PMC7907806, “Ancestral lysosomal enzymes with increased activity harbor therapeutic potential for treatment of Hunter syndrome” (iScience, 2021).
Substitutions are numbered along the chain they refer to.

B1: IDS-A3, reconstructed ancestral iduronate-2-sulfatase (last common ancestor of primates and rodents), co-expressed with HsFGE (enzyme)
chain: SETQANSTTDALNVLLIIVDDLRPSLGCYGDKLVRSPNIDQLASHSLLFQNAFAQQAVCAPSRVSFLTGRRPDTTRLYDFNSYWRVHAGNFSTIPQYFKENGYVTMSVGKVFHPGISSNHSDDSPYSWSFPPYHPSSEKYENTKTCRGPDGELHANLLCPVDVADVPEGTLPDKQSTEQAIRLLEKMKTSASPFFLAVGYHKPHIPFRYPKEFQKLYPLENITLAPDPQVPDGLPPVAYNPWMDIRQREDVQALNISVPYGPIPVDFQRKIRQSYFASVSYLDTQVGHLLSALDDLQLANSTIVAFTSDHGWALGEHGEWAKYSNFDVTTRVPLMFYVPGRTAPLPEAGEKLFPYLDPFDSASELMEPGRQTMDLVELVSLFPTLAGLAGLQVPPRCPVPSFHVELCREGQNLLKHFRFHDLEEDPHLHGNPRELIAYSQYPRPADSPQWNSDKPSLKDIKIMGYSIRTIDYRYTVWVGFNPDEFLANFSDIHAGELYFVDSDPLQDHNMYNDSQGGDLPQSLMP
modifications: cysteine 84 post-translationally modified to formylglycine (fGly); N-linked glycans
B2: IDS-A3_T354A, variant of ancestral IDS-A3 with the reversed mutation at position 354, co-expressed with HsFGE (enzyme)
chain: B1 chain with T329A
modifications: cysteine 84 post-translationally modified to formylglycine (fGly); N-linked glycans
B3: human iduronate-2-sulfatase (hIDS), co-expressed with human formylglycine-generating enzyme (HsFGE) (enzyme)
chain: SETQANSTTDALNVLLIIVDDLRPSLGCYGDKLVRSPNIDQLASHSLLFQNAFAQQAVCAPSRVSFLTGRRPDTTRLYDFNSYWRVHAGNFSTIPQYFKENGYVTMSVGKVFHPGISSNHTDDSPYSWSFPPYHPSSEKYENTKTCRGPDGELHANLLCPVDVLDVPEGTLPDKQSTEQAIQLLEKMKTSASPFFLAVGYHKPHIPFRYPKEFQKLYPLENITLAPDPEVPDGLPPVAYNPWMDIRQREDVQALNISVPYGPIPVDFQRKIRQSYFASVSYLDTQVGRLLSALDDLQLANSTIIAFTSDHGWALGEHGEWAKYSNFDVATHVPLIFYVPGRTASLPEAGEKLFPYLDPFDSASQLMEPGRQSMDLVELVSLFPTLAGLAGLQVPPRCPVPSFHVELCREGKNLLKHFRFRDLEEDPYLPGNPRELIAYSQYPRPSDIPQWNSDKPSLKDIKIMGYSIRTIDYRYTVWVGFNPDEFLANFSDIHAGELYFVDSDPLQDHNMYNDSQGGDLFQLLMP
modifications: cysteine 84 post-translationally modified to formylglycine (fGly); N-linked glycans
notes: iduronate-2-sulfatase (IDS), human; 550-residue protein; also called human IDS; hIDS + HsFGE

What follows are binders tested against recombinant human mannose-6-phosphate receptor (M6PR) (human, UniProt P11717 41-2491) (assay: SPR; Biacore T200, single cycle kinetics mode; IDS enzymes co-expressed with HsFGE on recombinant human M6P receptor; who was immobilised is not given in the source). Conditions: both partners purified.
B1 was tested, and the Kd was 0.026 µM.
B2 showed a Kd of 0.046 µM.
B3 gave a Kd of 0.032 µM.
